Molecular target: T1, B-cell maturation antigen (BCMA) (human, UniProt Q02223 1-184)
T1 sequence (looked up): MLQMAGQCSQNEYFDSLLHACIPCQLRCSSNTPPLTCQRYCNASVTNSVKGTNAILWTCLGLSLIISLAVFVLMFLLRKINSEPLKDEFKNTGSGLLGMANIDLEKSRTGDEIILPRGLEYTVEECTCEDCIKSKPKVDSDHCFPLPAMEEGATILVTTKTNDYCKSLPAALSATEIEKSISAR
Assay: cell-based or functional assay

B1: BCMA-CAR (L20H), LH construct derived from anti-BCMA antibody 1 with a 20 amino acid linker (other)
chain: DIVLTQSPASLAVSLGQRATISCRASKSVSTSGYSYMHWYQQKPGQPPRLLIYLASNLESGVPARFSGSGSGTDFTLNIHPVEEEDAATYYCQHSRELPFTFGSGTKLEIKGGGGSGGGGSGGGGSGGGGSEVQLQQSGPELVKPGASVKMSCKASGYTFTNYIIHWVKQKPGQGLEWIGYIIPYNDGSKYNEKFKGKATLTSDKSSSTAYMELSSLTSEDSAVYYCARLTFSYDSYAMDYWGQGTSVTVSSATGAAAIEVMYPPPYLDNEKSNGTIIHVKGKHLCPSPLFPGPSKPFWVLVVVGGVLACYSLLVTVAFIIFWVRSKRSRLLHSDYMNMTPRRPGPTRKHYQPYAPPRDFAAYRSRVKFSRSADAPAYQQGQNQLYNELNLGRREEYDVLDKRRGRDPEMGGKPRRKNPQEGLYNELQKDKMAEAYSEIGMKGERRRGKGHDGLYQGLSTATKDTYDALHMQALPPR
luminescence intensity ratio of the U266 co-culture group to the control group (transduced cells only): 62.8 times

— patent US20260240998A1 (JICHI MEDICAL UNIVERSITY, published 2026)
